Measurements reported in paper PMC4351431, “Pharmacokinetics of diluted (U20) insulin aspart compared with standard (U100) in children aged 3–6 years with type 1 diabetes during closed-loop insulin delivery: a randomised clinical trial” (Diabetologia, 2014).
Read-outs that look alike come from different tables or passages of the source.

Tests used:
[1] = cited from earlier work; for MCR I / ins c: published literature, closed-loop insulin delivery
From the text: Similar estimates of MCR I and ins c were also found in the current study and published literature (1.94 vs 1.68 × 10^−2 vs 1.90 × 10^−2 1/kg/min for MCR I, 29 vs 28 vs 61 pmol/l for ins c). In the present study, MCR I values in the two visits were highly correlated (r = 0.918, p < 0.001), as were the ins c values ...

[2] = Insulin aspart pharmacokinetics during closed-loop insulin delivery, two-compartment modelling of plasma insulin; parameters: species or system human; settings: in vivo
Description: Children were admitted in the afternoon on two study visits, 2–6 weeks apart, at the Wellcome Trust Clinical Research Facility, Addenbrooke’s Hospital, Cambridge, to undergo closed-loop insulin delivery from 17:00 hours until 8:00 hours the following morning. On both occasions, the children consumed identical evening meals at 17:00 hours [44 ± 12 g carbohydrate] and optional bedtime snacks [6 ± 7 g carbohydrate]. Standard pump bolus calculators were used to calculate meal insulin boluses and basal rates on the insulin pump (Animas 2020, Johnson & Johnson, PA, USA) were adjusted every 15 min according to the output of a model predictive control algorithm informed by real-time continuous glucose monitoring values (Dexcom G4, Dexcom, CA, USA). Standard strength (100 U/ml) insulin aspart (Novo Nordisk, Bagsvaerd, Denmark) was infused at one visit and diluted aspart (0.9% saline [154 mmol/l NaCl] at 1:5 ratio, 20 U/ml) was administered at the other; the order of the two interventions was random. […]
Venous blood samples were taken at −30, 0, 30, 60, 90, 120, 180, 240, 300, 360, 420, 480, 540, 600, 660, 720, 780, 840 and 900 min relative to 17:00 hours for measuring the plasma insulin concentration. […] Plasma insulin was measured using an immunochemiluminometric assay (Invitron, Monmouth, UK; intra-assay CV 4.7%, interassay CV 7.2–8.1%; 100% cross reactivity with insulin aspart). Fasting C-peptide levels were measured at plasma glucose values above 6 mmol/l by ELISA (Mercodia, Uppsala, Sweden).
Aspart pharmacokinetics was assessed using a two-compartment model measuring the time-to-peak of plasma insulin concentration (t max), metabolic clearance rate of insulin (MCR I), and background plasma insulin concentration (ins c). […]
Differences between pharmacokinetic parameters were assessed by paired t test (for normally distributed variables) or the Wilcoxon signed-rank test (for non-normally distributed variables). […] The Spearman’s rank correlation evaluated correlations between pharmacokinetic and demographic indices. […]

[3] = parameters: method as in PMID 23278690; settings: pig, in vivo, sc; cited from earlier work

Substance: B28Asp human insulin [insulin aspart]
- t max ([1]; adults with type 1 diabetes, during closed-loop insulin delivery): 51 min
- t max ([1]; older children with type 1 diabetes, during closed-loop insulin delivery): 66 min
- MCR I ([1]; ref 7): 0.0168 kg⁻¹ min⁻¹
- ins c ([1]; ref 7): 28 pmol/L
- MCR I ([1]; ref 8): 0.019 kg⁻¹ min⁻¹
- ins c ([1]; ref 8): 61 pmol/L
- t max ([1]; type 1 diabetes, following insulin bolus injection): 49 min
- mean value of t max in the present study ([2]; human): 60.4 min
- MCR I in the current study [2]: 19.4 mL/min/kg
- ins c in the current study [2]: 29 pmol/L
- effect of concentration on insulin aspart pharmacokinetics [3]: no significant difference between U200, U100 and U20
